Experimental data taken from the supplement of paper PMC10065799, “High-throughput profiling of sequence recognition by tyrosine kinases and SH2 domains using bacterial peptide display” (eLife, 2023).

Legend:
Grb2 SH2 = Grb2 SH2 (UniProt P62993); assay: SH2 binding enrichment of the phosphorylated peptide, bacterial display (enrichment ratio); higher = better substrate or ligand; peptides without Tyr show the background
c-Src SH2 = assay: as above
SHP2-C SH2 = assay: as above
Fer (mouse) = assay: phosphorylation enrichment, bacterial display (enrichment ratio); higher = better substrate or ligand; peptides without Tyr show the background
Hck = Hck (UniProt P08631); assay: as above
Chain of Hck (P08631 whole entry, looked up): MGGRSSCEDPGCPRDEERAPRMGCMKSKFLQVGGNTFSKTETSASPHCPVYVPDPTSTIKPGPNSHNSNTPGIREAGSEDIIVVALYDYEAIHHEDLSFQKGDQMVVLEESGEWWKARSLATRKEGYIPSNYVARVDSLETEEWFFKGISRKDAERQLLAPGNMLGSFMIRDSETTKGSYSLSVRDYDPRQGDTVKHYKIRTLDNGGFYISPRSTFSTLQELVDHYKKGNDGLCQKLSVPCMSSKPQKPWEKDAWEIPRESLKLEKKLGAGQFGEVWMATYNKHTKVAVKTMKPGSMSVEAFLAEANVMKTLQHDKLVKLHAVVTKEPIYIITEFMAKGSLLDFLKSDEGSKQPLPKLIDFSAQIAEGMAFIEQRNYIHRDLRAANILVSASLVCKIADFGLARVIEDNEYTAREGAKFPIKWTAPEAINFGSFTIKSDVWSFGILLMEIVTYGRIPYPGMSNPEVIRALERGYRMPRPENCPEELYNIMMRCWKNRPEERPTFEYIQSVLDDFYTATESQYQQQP

c-Src = assay: as above
c-Abl (mouse) = assay: as above
MERTK = MERTK (UniProt Q12866); assay: as above
Fes = Fes (UniProt P07332); assay: as above
Chain of Fes (P07332 whole entry, looked up): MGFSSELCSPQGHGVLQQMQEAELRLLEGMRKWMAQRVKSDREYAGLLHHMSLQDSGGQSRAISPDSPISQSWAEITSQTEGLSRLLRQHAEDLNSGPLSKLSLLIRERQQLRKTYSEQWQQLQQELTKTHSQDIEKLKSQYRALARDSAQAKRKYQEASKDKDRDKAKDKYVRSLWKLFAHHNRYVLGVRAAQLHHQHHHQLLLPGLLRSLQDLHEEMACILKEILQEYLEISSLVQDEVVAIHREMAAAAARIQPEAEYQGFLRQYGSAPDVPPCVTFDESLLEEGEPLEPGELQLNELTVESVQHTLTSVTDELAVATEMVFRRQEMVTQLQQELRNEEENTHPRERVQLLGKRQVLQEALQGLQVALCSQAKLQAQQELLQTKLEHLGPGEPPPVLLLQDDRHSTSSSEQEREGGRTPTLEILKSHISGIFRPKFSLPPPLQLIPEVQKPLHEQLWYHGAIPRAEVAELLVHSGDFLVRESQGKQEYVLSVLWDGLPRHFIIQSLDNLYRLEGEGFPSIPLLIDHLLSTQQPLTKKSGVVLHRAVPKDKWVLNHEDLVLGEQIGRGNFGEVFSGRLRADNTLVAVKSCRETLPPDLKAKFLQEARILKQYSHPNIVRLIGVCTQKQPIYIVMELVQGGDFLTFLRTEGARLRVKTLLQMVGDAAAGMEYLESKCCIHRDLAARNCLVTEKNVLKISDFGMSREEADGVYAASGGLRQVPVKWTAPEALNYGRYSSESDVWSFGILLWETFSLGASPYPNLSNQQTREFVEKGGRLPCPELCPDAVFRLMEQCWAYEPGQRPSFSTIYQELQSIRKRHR

EPHB1 = EPHB1 (UniProt P54762); assay: as above
Fyn = Fyn (UniProt P06241); assay: as above
Chain of Fyn (P06241 whole entry, looked up): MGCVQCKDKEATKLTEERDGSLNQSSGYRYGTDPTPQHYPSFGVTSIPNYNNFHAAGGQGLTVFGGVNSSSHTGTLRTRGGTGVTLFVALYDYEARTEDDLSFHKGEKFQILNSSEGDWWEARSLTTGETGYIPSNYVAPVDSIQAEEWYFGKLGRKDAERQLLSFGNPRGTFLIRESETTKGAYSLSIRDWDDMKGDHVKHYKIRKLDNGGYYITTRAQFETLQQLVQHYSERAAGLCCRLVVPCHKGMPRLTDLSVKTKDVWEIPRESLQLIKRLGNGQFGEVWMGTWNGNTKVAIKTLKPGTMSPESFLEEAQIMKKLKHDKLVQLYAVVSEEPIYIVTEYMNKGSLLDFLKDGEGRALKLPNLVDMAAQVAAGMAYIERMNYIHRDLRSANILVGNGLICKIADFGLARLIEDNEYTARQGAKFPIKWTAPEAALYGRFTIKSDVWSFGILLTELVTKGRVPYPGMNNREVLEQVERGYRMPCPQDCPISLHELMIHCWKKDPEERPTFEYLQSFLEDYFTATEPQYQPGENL

EPHB2 = EPHB2 (UniProt P29323); assay: as above
AncSZ = assay: as above
Jak2 = Jak2 (UniProt O60674); assay: as above
Chain of Jak2 (O60674 whole entry, looked up): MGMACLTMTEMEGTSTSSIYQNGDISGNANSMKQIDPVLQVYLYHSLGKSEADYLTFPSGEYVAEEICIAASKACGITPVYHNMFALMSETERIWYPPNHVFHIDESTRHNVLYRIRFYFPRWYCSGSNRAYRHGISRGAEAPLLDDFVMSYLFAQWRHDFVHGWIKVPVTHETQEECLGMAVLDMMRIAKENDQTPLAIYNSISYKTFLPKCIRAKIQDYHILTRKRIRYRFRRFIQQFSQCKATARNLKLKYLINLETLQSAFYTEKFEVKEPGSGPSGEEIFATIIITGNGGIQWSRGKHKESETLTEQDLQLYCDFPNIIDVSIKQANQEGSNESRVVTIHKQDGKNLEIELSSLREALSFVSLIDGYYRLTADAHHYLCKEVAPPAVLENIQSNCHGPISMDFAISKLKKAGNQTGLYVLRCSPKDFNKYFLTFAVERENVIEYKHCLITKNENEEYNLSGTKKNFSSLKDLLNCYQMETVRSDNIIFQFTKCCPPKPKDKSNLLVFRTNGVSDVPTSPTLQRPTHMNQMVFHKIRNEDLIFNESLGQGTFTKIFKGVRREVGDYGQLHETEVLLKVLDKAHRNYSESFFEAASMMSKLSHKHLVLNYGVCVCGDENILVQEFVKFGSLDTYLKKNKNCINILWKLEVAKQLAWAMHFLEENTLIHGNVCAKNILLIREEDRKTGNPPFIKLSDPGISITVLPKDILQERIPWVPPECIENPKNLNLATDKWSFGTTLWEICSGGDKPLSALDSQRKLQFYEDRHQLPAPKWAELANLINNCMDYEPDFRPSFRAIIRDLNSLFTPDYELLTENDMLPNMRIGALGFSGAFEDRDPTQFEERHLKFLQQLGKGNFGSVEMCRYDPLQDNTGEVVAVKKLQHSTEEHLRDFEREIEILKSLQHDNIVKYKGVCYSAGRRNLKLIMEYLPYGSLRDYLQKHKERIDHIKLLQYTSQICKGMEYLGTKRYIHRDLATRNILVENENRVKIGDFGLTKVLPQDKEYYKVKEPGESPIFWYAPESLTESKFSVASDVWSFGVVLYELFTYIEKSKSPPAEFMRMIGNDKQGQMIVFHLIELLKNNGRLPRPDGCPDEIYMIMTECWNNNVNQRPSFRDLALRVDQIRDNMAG

FGFR3 = FGFR3 (UniProt P22607); assay: as above
Chain of FGFR3 (P22607 whole entry, looked up): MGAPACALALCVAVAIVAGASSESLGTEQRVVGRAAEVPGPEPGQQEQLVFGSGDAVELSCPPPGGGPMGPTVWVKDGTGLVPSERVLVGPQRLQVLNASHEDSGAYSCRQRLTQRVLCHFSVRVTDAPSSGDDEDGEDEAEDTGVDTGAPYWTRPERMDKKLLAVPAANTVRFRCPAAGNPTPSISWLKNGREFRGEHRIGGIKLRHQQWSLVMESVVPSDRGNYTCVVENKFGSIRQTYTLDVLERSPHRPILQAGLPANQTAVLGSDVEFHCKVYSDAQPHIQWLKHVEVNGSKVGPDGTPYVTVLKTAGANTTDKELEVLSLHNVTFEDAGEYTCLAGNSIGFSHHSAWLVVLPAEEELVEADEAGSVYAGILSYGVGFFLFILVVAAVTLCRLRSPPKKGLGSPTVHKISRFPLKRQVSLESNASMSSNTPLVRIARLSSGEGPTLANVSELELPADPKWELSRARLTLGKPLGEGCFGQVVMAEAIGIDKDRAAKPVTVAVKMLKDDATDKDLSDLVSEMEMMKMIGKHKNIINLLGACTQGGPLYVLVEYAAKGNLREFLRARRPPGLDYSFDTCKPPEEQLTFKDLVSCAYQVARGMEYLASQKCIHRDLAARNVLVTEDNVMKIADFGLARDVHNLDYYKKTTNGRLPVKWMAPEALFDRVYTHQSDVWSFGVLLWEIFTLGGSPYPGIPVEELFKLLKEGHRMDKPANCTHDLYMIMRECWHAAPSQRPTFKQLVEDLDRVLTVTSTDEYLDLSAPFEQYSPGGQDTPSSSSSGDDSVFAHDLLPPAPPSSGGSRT

FGFR1 = FGFR1 (UniProt P11362); assay: as above
Chain of FGFR1 (P11362 whole entry, looked up, the tested form may be a part): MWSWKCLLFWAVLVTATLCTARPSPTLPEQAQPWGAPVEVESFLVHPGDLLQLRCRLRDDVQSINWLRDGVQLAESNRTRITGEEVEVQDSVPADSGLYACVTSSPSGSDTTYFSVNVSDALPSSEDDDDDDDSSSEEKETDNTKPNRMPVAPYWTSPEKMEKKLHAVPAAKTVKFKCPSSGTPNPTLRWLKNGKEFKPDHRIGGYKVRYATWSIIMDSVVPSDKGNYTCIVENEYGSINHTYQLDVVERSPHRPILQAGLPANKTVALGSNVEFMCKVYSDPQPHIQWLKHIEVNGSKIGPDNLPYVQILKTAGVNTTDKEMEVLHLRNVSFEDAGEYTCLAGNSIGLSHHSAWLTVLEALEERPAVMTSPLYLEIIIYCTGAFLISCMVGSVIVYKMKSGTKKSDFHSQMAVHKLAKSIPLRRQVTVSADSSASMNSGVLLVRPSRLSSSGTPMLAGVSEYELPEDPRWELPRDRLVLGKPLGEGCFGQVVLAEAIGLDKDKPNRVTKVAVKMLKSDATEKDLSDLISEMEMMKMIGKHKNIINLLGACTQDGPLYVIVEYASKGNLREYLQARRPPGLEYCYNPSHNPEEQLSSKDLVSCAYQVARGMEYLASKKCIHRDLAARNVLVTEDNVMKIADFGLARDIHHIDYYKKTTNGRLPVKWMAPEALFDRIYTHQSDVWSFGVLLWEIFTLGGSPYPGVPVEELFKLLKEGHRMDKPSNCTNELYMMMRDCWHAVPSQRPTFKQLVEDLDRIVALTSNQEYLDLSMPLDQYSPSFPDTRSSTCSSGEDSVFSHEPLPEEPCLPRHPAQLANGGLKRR
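Throughout, for SH2 binding enrichment of the phosphorylated peptide, bacterial display: peptide library displayed on the E. coli surface as eCPX fusions, selected cells deep-sequenced, score is each peptide's frequency after selection divided by its frequency in the input.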
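Throughout, for phosphorylation enrichment, bacterial display: 11-residue human phosphosite peptides and single-mutation variants displayed on the E. coli surface, counted by deep sequencing, each peptide's frequency after selection divided by its frequency in the unselected input library; frequency after pTyr selection over input frequency; kinase dosed for 20-30% of maximal phosphorylation in three min.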

Chain of Grb2 SH2 (P62993 whole entry, looked up): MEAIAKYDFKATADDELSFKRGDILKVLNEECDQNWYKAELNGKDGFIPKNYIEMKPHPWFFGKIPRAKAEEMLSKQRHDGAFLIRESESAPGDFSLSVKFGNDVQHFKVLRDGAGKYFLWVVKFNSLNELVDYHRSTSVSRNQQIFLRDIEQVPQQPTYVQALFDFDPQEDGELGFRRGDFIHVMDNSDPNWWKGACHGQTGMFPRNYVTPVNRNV

Row | Sequence | SH2 binding enrichment (Grb2 SH2) | SH2 binding enrichment (c-Src SH2) | SH2 binding enrichment (SHP2-C SH2) | phosphorylation enrichment (Fer (mouse)) | phosphorylation enrichment (Hck) | phosphorylation enrichment (c-Src) | phosphorylation enrichment (c-Abl (mouse)) | phosphorylation enrichment (MERTK) | phosphorylation enrichment (Fes) | phosphorylation enrichment (EPHB1) | phosphorylation enrichment (Fyn) | phosphorylation enrichment (EPHB2) | phosphorylation enrichment (AncSZ) | phosphorylation enrichment (Jak2) | phosphorylation enrichment (FGFR3) | phosphorylation enrichment (FGFR1)
1 | VKFLGYPPPEI [KDR_Y357_A352V_YF] | 0.809 | 0.523 | 0.852 | 0.427 | 0.369 | 0.371 | 0.688 | 0.402 | 0.974 | 0.452 | 0.443 | 0.618 | 0.692 | 0.744 | 0.555 | 0.398
2 | LRYDVYGGENE [STOX1_Y610_E608D] | 0.925 | 0.875 | 0.675 | 1.03 | 1.41 | 1.94 | 2.15 | 1.18 | 3.02 | 1.82 | 1.48 | 1.57 | 2.74 | 2.78 | 1.29 | 1.09
3 | RTTIHYNYMCN [TP53_Y234_C229R] | 0.8 | 0.994 | 0.603 | 1.25 | 1.11 | 0.649 | 1.2 | 0.901 | 2.24 | 1.48 | 1.16 | 1.13 | 1.81 | 1.57 | 1.6 | 0.892
4 | TSSGGYRRTPS [ABI1_Y333] | 0.826 | 0.66 | 0.56 | 0.473 | 0.409 | 0.419 | 0.486 | 0.467 | 0.499 | 0.355 | 0.433 | 0.532 | 0.499 | 0.473 | 0.428 | 0.386
5 | RRMLQYLTVND [PPFIBP2_Y663] | 0.994 | 0.51 | 0.976 | 0.456 | 0.686 | 0.486 | 0.691 | 0.475 | 0.862 | 0.417 | 0.501 | 0.584 | 0.803 | 0.882 | 0.632 | 0.63
6 | HICTAYELVLA [DHCR24_Y190] | 1.01 | 0.573 | 0.708 | 8.27 | 0.779 | 2.77 | 1.13 | 1.56 | 1.74 | 0.891 | 0.598 | 1.02 | 1.8 | 1.6 | 2.2 | 3.12
7 | FFLGAYDRFLP [SLC22A5_Y486_V481F_YF] | 1.15 | 1.25 | 1.74 | 1.04 | 3.38 | 3.75 | 0.842 | 3.38 | 1.46 | 0.756 | 1.99 | 1.13 | 1.5 | 1.02 | 0.782 | 0.503
8 | VEKGSYSALLA [ABCC2_Y845] | 0.663 | 1.45 | 0.686 | 0.45 | 0.537 | 0.493 | 0.516 | 0.71 | 0.535 | 0.354 | 0.332 | 0.392 | 0.648 | 0.69 | 0.456 | 0.401
9 | GGPAGYLRRAS [PKLR_Y38] | 0.666 | 0.514 | 0.42 | 0.377 | 0.458 | 0.429 | 0.671 | 0.528 | 0.678 | 0.406 | 0.636 | 0.398 | 0.717 | 0.529 | 0.442 | 0.405
10 | IYRASYYRRGD [LTK_Y676] | 0.728 | 0.439 | 0.471 | 0.453 | 1.2 | 0.666 | 0.927 | 0.763 | 0.757 | 0.398 | 0.594 | 0.422 | 0.821 | 0.621 | 0.555 | 0.481
11 | HNELFYEEAEH [VANGL1_Y345_YF] | 0.599 | 0.645 | 0.733 | 4.23 | 0.974 | 0.484 | 0.727 | 0.525 | 1.35 | 0.819 | 0.942 | 0.932 | 1.89 | 0.981 | 0.964 | 0.809
12 | CNSFQYGGGGG [NPPA_Y151_R150Q] | 0.845 | 0.531 | 0.806 | 0.512 | 0.497 | 0.532 | 0.731 | 0.447 | 0.919 | 0.501 | 0.436 | 0.452 | 0.794 | 0.716 | 0.549 | 0.409
13 | LSQDVYEEDSY [RET_Y900_R897Q] | 1.1 | 0.633 | 0.555 | 0.835 | 0.497 | 0.856 | 1.13 | 0.584 | 1.71 | 0.966 | 0.782 | 1.19 | 1.53 | 1.76 | 1.04 | 0.695
14 | GIVEDYRPPVF [ACVRL1_Y421_F425V_YF] | 0.726 | 0.353 | 0.738 | 0.422 | 0.39 | 0.414 | 0.63 | 0.445 | 0.777 | 0.372 | 0.455 | 0.46 | 0.767 | 0.625 | 0.51 | 0.414
